{"source": "paper PMC8568920", "about": "“Serum apolipoprotein A-I potentiates the therapeutic efficacy of lysocin E against Staphylococcus aureus” (Nature Communications, 2021)", "molecules": {"B1": {"name": "rmApoA-I: recombinant mouse ApoA-I (protein, UniProt Q00623 25-264, looked up)", "Apolipoprotein A-I": "DEPQSQWDKVKDFANVYVDAVKDSGRDYVSQFESSSLGQQLNLNLLENWDTLGSTVSQLQERLGPLTRDFWDNLEKETDWVRQEMNKDLEEVKQKVQPYLDEFQKKWKEDVELYRQKVAPLGAELQESARQKLQELQGRLSPVAEEFRDRMRTHVDSLRTQLAPHSEQMRESLAQRLAELKSNPTLNEYHTRAKTHLKTLGEKARPALEDLRHSLMPMLETLKTQVQSVIDKASETLTAQ"}}, "system": "S. aureus", "experiment": "Lysocin E antimicrobial activity-enhancing activity (1 unit decreases the MIC of lysocin E to 1 µg ml−1)", "assay_type": "cell-based, Staphylococcus aureus", "conditions": "ApoA species", "description": "Calf serum (10 ml) was added to 15 ml EtOH (60% v/v) and the mixture was centrifuged for 15 min. The collected supernatant was evaporated and suspended in 8 ml Milli-Q water (fraction [fr.] II). Fr. II with formic acid (0.1%) was applied to 10 ml of ODS resin (Waters Corporation, Milford, MA, USA). After washing with 25% EtOH and then 50% EtOH, the resin was eluted with 75% EtOH containing 0.1% formic acid. The eluted sample was evaporated and dissolved in 0.8 ml buffer A (10 mM phosphate buffer [pH 7.1], 6 M urea; Fr. III). Fr. III was applied to the Superose 12 10/300 GL gel filtration column (GE Healthcare) and eluted with the AKTApurifier system (GE Healthcare). The elution was performed in buffer A at a flow rate of 0.5 ml min^−1 and 60 fractions (0.5 ml per fr.) were collected in 2-ml tubes. All fractions, except for Fr. I, were dialysed in 10 mM phosphate buffer (pH 7.1) before assessment of their activities. Protein concentrations were measured using Coomassie Plus^TM protein assay reagent (Thermo Fisher) with bovine serum albumin as the standard. Amino acid sequence analysis was performed by in-gel digestion and mass spectrometric analysis. One unit was defined as the activity that decreases the MIC of lysocin E to 1 µg ml^−1.", "data": [{"molecule": "B1", "values": [{"measurement": "Specific activity for lysocin E antimicrobial enhancing activity", "result": 6400, "unit": "unit mg-1 protein"}]}]}
